Data as given in the supplement of paper PMC7125110.
± gives the standard error. Fewer inactive variants are shown than the library holds.

B1: glmS ribozyme (parent)
chain: AUAAAAGCGCCAGAACUACAGAAAUGUAGUUGACGAGGAGGAGGUUUAUCGAAUUUUCGGCGGAUGCCUCCAAA

Key:
Settings in all cases: with glucosamine-6-phosphate
glucosamine-6-phosphate [1] = variants of: B1; assay: self-cleavage kobs at 160 uM GlcN6P; higher = faster cleavage; RNA array
Summary of the method: (§1)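 Over ~14 h at 37 °C, tiles were imaged as glucosamine-6-phosphate (40 μM to 10 mM) in HEPES/KCl/Mg(OAc)2 buffer flowed across sequenced MiSeq chips. The chips carried barcoded ribozyme variants transcribed in situ by E. coli RNA polymerase and tracked with a hybridised Cy3 probe. After normalisation to baseline and to non-cleaving reference variants, one- or two-exponential decay fits of per-tile medians gave kobs. kcat and KM followed from weighted Michaelis–Menten fits across concentrations.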

glucosamine-6-phosphate [2] = variants of: B1; assay: self-cleavage kobs at 640 uM GlcN6P; higher = faster cleavage; RNA array
Summary of the method: as §1

glucosamine-6-phosphate [3] = variants of: B1; assay: self-cleavage kobs at 2500 uM GlcN6P; higher = faster cleavage; RNA array
Summary of the method: as §1

glucosamine-6-phosphate [4] = variants of: B1; assay: self-cleavage kobs at 10000 uM GlcN6P; higher = faster cleavage; RNA array
Summary of the method: as §1

| Variant | self-cleavage kobs at 160 uM GlcN6P (glucosamine-6-phosphate [1]) [s⁻¹] | self-cleavage kobs at 640 uM GlcN6P (glucosamine-6-phosphate [2]) [s⁻¹] | self-cleavage kobs at 2500 uM GlcN6P (glucosamine-6-phosphate [3]) [s⁻¹] | self-cleavage kobs at 10000 uM GlcN6P (glucosamine-6-phosphate [4]) [s⁻¹] |
| --- | --- | --- | --- | --- |
| G13C U45G U56A G63A U65C | < 1e-05 | < 1e-05 | < 1e-05 |  |
| G40U G44U C58G | < 1e-05 |  |  |  |
| A42G U54A C67A | 0.000942 ± 0.00031 | 0.0023 ± 0.001 | 0.00449 ± 0.0011 |  |
| U30G A33U | < 1e-05 |  |  |  |
| C16G A33C C71U | < 1e-05 | < 1e-05 | < 1e-05 |  |
| A33C A42U U46C U54G | < 1e-05 |  | < 1e-05 |  |
| A39U G44C A64U | < 1e-05 | < 1e-05 |  |  |
| G35A A39C | < 1e-05 | < 1e-05 | < 1e-05 | < 1e-05 |
| C11U U65C | < 1e-05 |  |  |  |
| G7C G32C G43U G60U | < 1e-05 |  | < 1e-05 | < 1e-05 |
| U54G U56A | 0.000806 ± 0.00016 | 0.00244 ± 0.00071 | 0.012 ± 0.0054 | 0.0311 ± 0.013 |
| A12C C16U A53G U65G | 9.62e-05 ± 2.4e-05 | 0.000453 ± 9.1e-05 | 0.000899 ± 0.00019 |  |
| C8A C11U C50G A53U G63A | 0.00012 ± 2.8e-05 | 0.000594 ± 0.00015 | 9.63e-05 ± 3.3e-05 |  |
| C10U G60U C70G | < 1e-05 | < 1e-05 |  |  |
| G38C G44U C67G | < 1e-05 |  |  | < 1e-05 |
| C34A U54A | < 1e-05 |  | < 1e-05 |  |
| C34A G44U A53C U55G | < 1e-05 |  |  |  |
| C11G G32A G59C | < 1e-05 | < 1e-05 |  |  |
| A6C G7A | < 1e-05 | < 1e-05 |  |  |
| C58G U69C | 6.56e-05 ± 2e-05 | 0.000102 ± 3.1e-05 | 0.00011 ± 3.2e-05 |  |
| U47G U49G G51A G62U | < 1e-05 | < 1e-05 | < 1e-05 |  |
| C8U C16U U54A C61A C71U | < 1e-05 | < 1e-05 |  |  |
| C8U C10A G62A | < 1e-05 | < 1e-05 |  |  |
| G9U G37U C50U C67U | < 1e-05 |  |  |  |
| G35A C50A | < 1e-05 | < 1e-05 | < 1e-05 |  |

| Variant | self-cleavage kobs at 160 uM GlcN6P (glucosamine-6-phosphate [1]) [s⁻¹] | self-cleavage kobs at 640 uM GlcN6P (glucosamine-6-phosphate [2]) [s⁻¹] | self-cleavage kobs at 2500 uM GlcN6P (glucosamine-6-phosphate [3]) [s⁻¹] | self-cleavage kobs at 10000 uM GlcN6P (glucosamine-6-phosphate [4]) [s⁻¹] |
| --- | --- | --- | --- | --- |
| C11G A12G G13C A14G | < 1e-05 | < 1e-05 | < 1e-05 | < 1e-05 |
| A39C G63C | < 1e-05 | < 1e-05 | < 1e-05 | < 1e-05 |
| C10U A36G U46C | < 1e-05 |  | < 1e-05 | < 1e-05 |
| G13A A33G A36U G40U U55A | < 1e-05 | < 1e-05 | < 1e-05 |  |
| G13U A33G G40U | < 1e-05 |  |  |  |
| G9U A33C | < 1e-05 | < 1e-05 | < 1e-05 | < 1e-05 |
| A15G C16U A33U A39G | < 1e-05 |  |  |  |
| G62U G66C | < 1e-05 | < 1e-05 | < 1e-05 | < 1e-05 |
| C8U A42G G63A | < 1e-05 | < 1e-05 | < 1e-05 |  |
| A12C G63C G66C | < 1e-05 | < 1e-05 |  |  |
| A12C C34U | < 1e-05 |  | < 1e-05 | < 1e-05 |
| G35A U46G | < 1e-05 | < 1e-05 | < 1e-05 |  |
| U54A U57A U65C | < 1e-05 |  |  |  |
| G29C G37C G41C | < 1e-05 |  | < 1e-05 |  |
| G35A C68U C70G | < 1e-05 | < 1e-05 | < 1e-05 |  |
| G29C U69A | 4.08e-05 ± 1.4e-05 | 8.01e-05 ± 1.7e-05 | 2.32e-05 ± 1e-05 |  |
| C8A G40C G41C G63U | < 1e-05 | < 1e-05 |  |  |
| G43U A53C G62U | < 1e-05 |  | < 1e-05 |  |
| C10G G35C | < 1e-05 | < 1e-05 |  | < 1e-05 |
| C11U A39U U49G | < 1e-05 | < 1e-05 | < 1e-05 |  |
| A36U G41C | < 1e-05 |  | < 1e-05 | < 1e-05 |
| A12U G35U U55G | < 1e-05 |  |  |  |
| A15C C58U C61A | 0.0001 ± 4.6e-05 | 6.79e-05 ± 2.5e-05 |  |  |
| G35U G43A | < 1e-05 |  | < 1e-05 | < 1e-05 |
| C11A C16U G44U A53G C71G | < 1e-05 | < 1e-05 |  |  |

| Variant | self-cleavage kobs at 160 uM GlcN6P (glucosamine-6-phosphate [1]) [s⁻¹] | self-cleavage kobs at 640 uM GlcN6P (glucosamine-6-phosphate [2]) [s⁻¹] | self-cleavage kobs at 2500 uM GlcN6P (glucosamine-6-phosphate [3]) [s⁻¹] | self-cleavage kobs at 10000 uM GlcN6P (glucosamine-6-phosphate [4]) [s⁻¹] |
| --- | --- | --- | --- | --- |
| A36C A39U U57C | < 1e-05 |  |  |  |
| A42C U47A | < 1e-05 |  | < 1e-05 |  |
| U45G C61U G63A U65C | < 1e-05 | < 1e-05 | < 1e-05 |  |
| C10U A39U G59A C70U | < 1e-05 |  | < 1e-05 |  |
| G7C C61U | < 1e-05 | < 1e-05 | < 1e-05 |  |
| G9A C10A | < 1e-05 | < 1e-05 | < 1e-05 | < 1e-05 |
| G38A A53U A64U | < 1e-05 |  |  |  |
| C11U G13U U49G | < 1e-05 | < 1e-05 | < 1e-05 |  |
| C8G G9U A12U C16G | < 1e-05 | < 1e-05 |  |  |
| U55G G63C | < 1e-05 |  | < 1e-05 |  |
| A12U G35C | < 1e-05 | < 1e-05 |  | < 1e-05 |
| A48G G62C | < 1e-05 |  |  | < 1e-05 |
| G7C A48C C50U | < 1e-05 |  |  | < 1e-05 |
| G41A G59U C71U | < 1e-05 | < 1e-05 | < 1e-05 |  |
| A6C A14C G44U U45C | < 1e-05 |  | < 1e-05 |  |
| A12G C34U G41A | < 1e-05 | < 1e-05 |  |  |
| C10A C34U U55G | < 1e-05 |  | < 1e-05 |  |
| C10U G51U | < 1e-05 | < 1e-05 | < 1e-05 | < 1e-05 |
| A15U C50A A64U C71U | < 1e-05 |  |  |  |
| U31C G35C G40C | < 1e-05 |  | < 1e-05 | < 1e-05 |
| U49C A53G | < 1e-05 | < 1e-05 |  | < 1e-05 |
| G7A G40A | < 1e-05 | < 1e-05 |  |  |
| C10G U55A | < 1e-05 | < 1e-05 |  |  |
| U55C G59C | < 1e-05 | < 1e-05 |  |  |
| G7A U49A | < 1e-05 | < 1e-05 | < 1e-05 | < 1e-05 |

| Variant | self-cleavage kobs at 160 uM GlcN6P (glucosamine-6-phosphate [1]) [s⁻¹] | self-cleavage kobs at 640 uM GlcN6P (glucosamine-6-phosphate [2]) [s⁻¹] | self-cleavage kobs at 2500 uM GlcN6P (glucosamine-6-phosphate [3]) [s⁻¹] | self-cleavage kobs at 10000 uM GlcN6P (glucosamine-6-phosphate [4]) [s⁻¹] |
| --- | --- | --- | --- | --- |
| A33G G41U C50U C71U | < 1e-05 | < 1e-05 |  |  |
| A12U C34U | < 1e-05 | < 1e-05 |  | < 1e-05 |
| C50A U57G U65C C70G | 8.04e-05 ± 2.6e-05 | 0.000128 ± 3.7e-05 | 0.000108 ± 3.5e-05 | 3.25e-05 ± 1.6e-05 |
| G38A G51C | < 1e-05 |  |  |  |
| G13U A36G G43A G66C C70A | < 1e-05 | < 1e-05 | < 1e-05 |  |
| G9C G44U | < 1e-05 | < 1e-05 | < 1e-05 | < 1e-05 |
| A6C A39C C70U | < 1e-05 |  | < 1e-05 |  |
| G7A A12C U57A | < 1e-05 | < 1e-05 | < 1e-05 |  |
| A14G A53C | 0.00202 ± 0.00065 | 0.00488 ± 0.0012 | 0.01 ± 0.0023 | 0.0384 ± 0.016 |
| C50G A52G C67U | 0.000143 ± 5.1e-05 | 0.000875 ± 0.00027 | 7.71e-05 ± 2.8e-05 |  |
| C50G G66C | 0.000112 ± 3.9e-05 |  |  |  |
| C50G A64G | 0.000518 ± 0.00017 | 0.000105 ± 2.1e-05 |  | 2.48e-05 ± 9.4e-06 |
| G29A G62A | < 1e-05 | < 1e-05 | < 1e-05 |  |
| G35A U54G | < 1e-05 | < 1e-05 | < 1e-05 |  |
| A33G G40C G63U | < 1e-05 | < 1e-05 | < 1e-05 |  |
| G9A A36G C67U | < 1e-05 |  |  |  |
| C34U G41A | < 1e-05 | < 1e-05 | < 1e-05 | < 1e-05 |
| A6C U49A C50U | < 1e-05 | < 1e-05 |  |  |
| G7U G13U | < 1e-05 |  | < 1e-05 | < 1e-05 |
| G38A G41C | < 1e-05 | < 1e-05 | < 1e-05 | < 1e-05 |
| A6G C50U U54C | < 1e-05 | < 1e-05 | < 1e-05 |  |
| C58U C68A C71G | 8.62e-05 ± 2.6e-05 | 4.72e-05 ± 2.2e-05 |  |  |
| G7U A12U U56G | < 1e-05 | < 1e-05 |  |  |
